Here are results for nine molecules from patent publication US20240287172A1 (SCIRHOM, published 2024).

Residue numbers refer to the chain shown, from its start.

T1: hiR2-FL-G546A-T7 (human, UniProt Q6PJF5 1-856)
T1 sequence: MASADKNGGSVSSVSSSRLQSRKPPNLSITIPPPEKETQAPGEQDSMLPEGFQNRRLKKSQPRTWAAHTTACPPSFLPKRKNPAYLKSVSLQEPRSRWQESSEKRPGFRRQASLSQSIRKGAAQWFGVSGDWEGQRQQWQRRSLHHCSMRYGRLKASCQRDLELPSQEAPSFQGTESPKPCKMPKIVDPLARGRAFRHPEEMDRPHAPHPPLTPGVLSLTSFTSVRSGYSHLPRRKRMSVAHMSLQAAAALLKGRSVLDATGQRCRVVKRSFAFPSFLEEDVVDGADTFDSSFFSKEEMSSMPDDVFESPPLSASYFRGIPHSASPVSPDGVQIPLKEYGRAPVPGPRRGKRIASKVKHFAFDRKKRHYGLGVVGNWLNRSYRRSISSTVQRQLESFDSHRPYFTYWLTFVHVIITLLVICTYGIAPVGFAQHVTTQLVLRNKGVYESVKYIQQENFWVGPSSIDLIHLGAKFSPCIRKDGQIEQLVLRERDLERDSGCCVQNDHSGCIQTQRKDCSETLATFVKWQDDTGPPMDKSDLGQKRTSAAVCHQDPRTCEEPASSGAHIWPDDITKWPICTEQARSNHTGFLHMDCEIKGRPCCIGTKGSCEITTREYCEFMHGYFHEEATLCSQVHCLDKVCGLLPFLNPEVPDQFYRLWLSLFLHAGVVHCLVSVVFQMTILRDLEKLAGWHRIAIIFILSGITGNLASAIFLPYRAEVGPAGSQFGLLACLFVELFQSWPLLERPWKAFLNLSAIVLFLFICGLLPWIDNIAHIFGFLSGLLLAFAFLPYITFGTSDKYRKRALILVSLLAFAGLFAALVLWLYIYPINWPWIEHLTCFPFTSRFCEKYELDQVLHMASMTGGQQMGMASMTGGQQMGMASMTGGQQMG

T2: hiR2-FL-T544P-T7 (human, UniProt Q6PJF5 1-856)
T2 sequence: T1 sequence with T544P, A546G

B1: antibody 5 (antibody, V domains shown)
VH: QVTLKESGPGILQPSQTLSLTCSFSGFSLSTFGMGVGWIRQPSGKGLEWLAHIWWDDEKYYNSALKSRLTISKATSKNQAFLKIANVDTADTATYYCARISNYGSNYWYFNVWGTGTTVTVSS
VL: QVVLTQSPALMSASPGEKVTMTCSAGSSVSCMYWYQQKPGSSPRVLIYDTSNLASGVPARFTGSGSGTSYSLTISRMEAEDAASYYCQQWNSYPLTFGAGTKLELK
notes: mouse IgG, kappa light chain; also called clone #5; purified antibody 5
B2: antibody 43 (antibody, V domains shown)
VH: B1 VH with T3A, P42S, H52N, E58D, S63P, A74D, T75A, S101G, N111D
VL: QIVLTQSPAIMSASPGERVTMTCSANSRISYMYWYQQKPGSSPRLLIYDTSNLASGVPVRFSGSGSGTSYSLTISRMEAEDAATYNCQQWSSYPLTFGAGTKLELK
notes: mouse IgG, kappa light chain; also called clone #43; purified antibody 43
B3: antibody 44 (antibody, V domains shown)
VH: B1 VH with G44E, E58D, S63P, A74D, A80I, A85T, D91E, A98S, S101G, N111D
VL: QIVLTQSPAVMSASPGEKVTMTCTASSSVYYMYWYQQTPGSSPRLLIYDTSNLASGVPVRFSGSGSGTSYSLTISRMEAEDAATYYCQQWNTYPLTFGAGTKLELK
notes: mouse IgG, kappa light chain; also called clone #44; purified antibody 44
B4: antibody 42 (antibody, V domains shown)
VH: B1 VH with F24L, M34R, S63P, A74D, A80V, K83R, S101Q, N111D
VL: B2 VL with Q1L, R18K, S24G, N26T, Y33F, L45V, M77V, A82V, N86Y, S91N
notes: mouse IgG, kappa light chain; also called clone #42; purified antibody 42
B5: antibody 22 (antibody, V domains shown)
VH: B1 VH with A80V
VL: B1 VL with C31Y, S84T
notes: mouse IgG, kappa light chain; also called clone #22; purified antibody 22
B6: antibody 34 (antibody, V domains shown)
VH: QVTLKESGPGILQPSQTLSLTCSFSGFSLSTFSLGVGWIRQSSGKGLEWLAHIWWDDEKYYNPALKSRLTISKDTSKNQVFLKIANVDAADTATYYCARAYYSKSYYALDYWGQGTSVTVSS
VL: DIQMTQSPSSLSASLGERVSLTCRASQEISGYLSWLQQKPDGTIKRLIYAASTLDSGVPKRFSGSRSGSDYSLAISSLESEDFADYYCLQYANFPFTFGSGTKLEIK
notes: mouse IgG, kappa light chain; also called clone #34; purified antibody 34
B7: antibody 50 (antibody, V domains shown)
VH: QVQLQQSGAELVRPGASVKVSCKASGYAFSNYLIEWVKQRPGQGLEWIGVINPGSGFTKYNEKFKGKATLTADKSSSTAYMQLSSLTSEDSAVYFCARGLYRAMDYWGQGTSVTVSS
VL: DIQMTQSPASQSASLGESVTITCLASQTIGTWLAWYQQKPGKSPQLLIYAAASLADGVPSRFSGGGSGTKFSFKISSLQAEDFVNYYCQQIYSTPYTFGGGTKLEIK
notes: mouse IgG, kappa light chain; also called clone #50; purified antibody 50
B8: antibody 3 (antibody, V domains shown)
VH: QVTLKESGPGILQPSQTLSLTCSFSGFSLTTFAMGIGWVRQPSGKGLEWLAHIWWDGEKYNNPVLKSRLTISKDTSKNQVFLRIANVDTPDTATYYCARISSIYYIIDNWGQGTSVTVSS
VL: DIVLTQSPATLSVTPGHSVSLSCRASQSISNNLHWYQKKSHESPRLLIKYVSQSISGIPSRFSGSGSGTDFTLSINSVETEDFGMYFCQQSYNWPLTFGAGTKLELK
notes: mouse IgG, kappa light chain; also called clone #3; purified antibody 3
B9: antibody 48 (antibody, V domains shown)
VH: B7 VH with A9T, A16T, S30T, A79V, Q82H
VL: B7 VL with G30A, A50G, A52T, S53T, N85S, I91L
notes: mouse IgG, kappa light chain; also called clone #48; purified antibody 48

One experiment concerns the target T1, hiR2-FL-G546A-T7. As to the kind of experiment: FACS, MEF-DKO cells, 3 µg/ml. From the text: (§1) In brief, immortalized MEF-DKO-hiR2-FL-WT-T7 cells, MEF-DKO-miR2-FL-WT-T7 cells and MEF-DKO-hiR2-FL-R441K-T7, MEF-DKO-hiR2-FL-K443R-T7, MEF-DKO-hiR2-FL-V459I-T7, MEF-DKO-hiR2-FL-G481Q-T7, MEF-DKO-hiR2-FL-L488R-T7, MEF-DKO-hiR2-FL-L493I-T7, MEF-DKO-hiR2-FL-D496T-T7, MEF-DKO-hiR2-FL-H505R-T7, MEF-DKO-hiR2-FL-Q512L-T7, MEF-DKO-hiR2-FL- R513K-T7, MEF-DKO-hiR2-FL-D528N-T7, MEF-DKO-hiR2-FL-P533-T7, MEF-DKO-hiR2-FL-M534S-T7, MEF-DKO-hiR2-FL-G540S-T7, MEF-DKO-hiR2-FL-R543Q-T7, MEF-DKO-hiR2-FL-T544P-T7, MEF-DKO-hiR2-FL-G546A-T7, MEF-DKO-hiR2-FL-A547V-T7, MEF-DKO-hiR2-FL-R582Q-T7, MEF-DKO-hiR2-FL-F588L-T7, MEF-DKO-hiR2-FL-M591I-T7, MEF-DKO-hiR2-FL-E594K-T7, MEF-DKO-hiR2-FL-E626D-T7, MEF-DKO-hiR2-FL-L657I-T7, and MEF-DKO-hiR2-FL-H835Y-T7 cells were harvested with 10 mM EDTA in PBS, washed and resuspended in FACS buffer (PBS, 3% FBS, 0.05% sodium azide), and seeded in Nunc U-bottom 96-well plates (Thermo Fisher Scientific, USA) at approximately 3×10⁵ cells per well.
(§2) To pellet cells and remove supernatants, the plates were centrifuged at 1,500 rpm and 4° C. for 3 minutes. For primary staining, cells were resuspended in 100 μl per well of either FACS buffer alone (controls) or the purified antibodies 3, 5, 16, 22, 34, 42, 43, 44, 48, and 50 of the invention at 3 μg/ml FACS buffer and incubated on ice for 1 hour. Afterwards, plates were centrifuged at 1,500 rpm and 4° C. for 3 minutes and washed twice with 200 μl per well of FACS buffer. For secondary staining, cells were spun down and resuspended in 100 μl per well of PE-conjugated goat anti-mouse IgG F(ab′)2 detection fragment (Dianova, Germany) diluted 1:100 in FACS buffer. Protected from light, the cell suspensions were incubated on ice for 1 hour. Plates were then centrifuged at 1,500 rpm and 4° C. for 3 minutes and washed three times with 200 μl per well of FACS buffer. Finally, cells were resuspended in 150 μl per well of FACS buffer and analyzed using a BD Accuri™ C6 Plus flow cytometer (Becton Dickinson, Germany).
(In flow cytometry, cells or beads pass a laser one at a time.)
B1: the “loss of binding vs wild type” value was no less than 95%.
Still for that read-out and setting: to B2 belongs no less than 60%; to B3, no less than 60%.
On the same count and under the same terms, to B4 belongs no less than 60%; to B5, no less than 30%; to B6, no less than 60%.
On the same count and under the same terms, the same measure for B7: no less than 30%; for B8: no less than 30%.

Another experiment deals with T2, hiR2-FL-T544P-T7. As to the kind of experiment: FACS, MEF-DKO cells, 3 µg/ml.
Description: as §1, §2
For the molecule B1, the “loss of binding vs wild type” value is no less than 60%.
For the molecule B2, the “loss of binding vs wild type” value is no less than 60%.
As to B3, the “loss of binding vs wild type” value is no less than 30%.
The same measure, in the same setting: to B4 belongs no less than 60%.
The same measure, in the same setting: to B5 belongs no less than 30%; to B6, no less than 60%.
Still for that read-out and setting: to B9 belongs no less than 30%; to B7, no less than 30%.
B8: the “loss of binding vs wild type” value is no less than 60%.
